Measurements published in patent US10584341, “Antagonistic PDL1 aptamers and their applications in cancer therapy” (Academia Sinica).
Like-named read-outs stand apart in the source and are kept apart here.

B1: AP32 (62-nt) (ssDNA)
DNA: TCCCTACGGCGCTAACACATCAACTTGATAGACAACTGCGTCCACTGCCACCGTGCTACAAC
B2: AP14 (ssDNA)
DNA: TCCCTACGGCGCTAACCACTCAATAATTCCACTGCTACATACGTTTGCCACCGTGCTACAAC
B3: AP22 (ssDNA)
DNA: TCCCTACGGCGCTAACAAACTAGGGTCCATTTGTGTACCTGCGAGCCACCGTGCTACAAC
B4: AP33 (ssDNA)
DNA: TCCCTACGGCGCTAACCATCTGGTACCTTACGACGCTTCATCTCCCGCCACCGTGCTACAAC
B5: AP36 (ssDNA)
DNA: TCCCTACGGCGCTAACCATGTTTTCGAAAGACAATCCGCTGCCCTGGCCACCGTGCTACAAC
B6: AP48 (ssDNA)
DNA: TCCCTACGGCGCTAACCATGTTCCTTTCGTTCTGCCTTTTCCTTCCGCCACCGTGCTACAAC

Tests used:
[1] = biological target: PDL1 (CD274) on CT26 cells (Mus musculus, UniProt Q9EP73 Q9EP73:19-290); test: flow; apparent Kd on CT26 cells; details: tags: endogenous, CT26 colorectal cancer cells; label: fluorescent dye (not specified)
PDL1 (CD274) on CT26 cells, sequence (Q9EP73 19-290, one chain of several): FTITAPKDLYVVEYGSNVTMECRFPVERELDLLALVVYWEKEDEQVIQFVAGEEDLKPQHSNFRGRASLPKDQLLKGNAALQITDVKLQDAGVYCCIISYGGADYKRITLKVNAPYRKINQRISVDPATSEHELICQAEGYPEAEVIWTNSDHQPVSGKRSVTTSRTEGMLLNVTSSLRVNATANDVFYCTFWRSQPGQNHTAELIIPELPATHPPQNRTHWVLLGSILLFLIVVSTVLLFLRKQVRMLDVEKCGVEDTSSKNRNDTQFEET

[2] = biological target: PDL1 (CD274) on LL/2 cells (Mus musculus, UniProt Q9EP73 Q9EP73:19-290); test: flow; apparent Kd on LL/2 cells; details: tags: endogenous, LL/2 lung carcinoma cells; label: fluorescent dye (not specified)
PDL1 (CD274) on LL/2 cells, sequence (Q9EP73 19-290, one chain of several): as above

PDL1 (CD274, B7-H1) [3] = biological target: T1, PDL1 (CD274, B7-H1) (Homo sapiens, UniProt Q9NZQ7 Q9NZQ7:19-238); test: competition; ED50 for blocking PD-1:PDL1, ELISA
T1 sequence (Q9NZQ7 19-238, one chain of several): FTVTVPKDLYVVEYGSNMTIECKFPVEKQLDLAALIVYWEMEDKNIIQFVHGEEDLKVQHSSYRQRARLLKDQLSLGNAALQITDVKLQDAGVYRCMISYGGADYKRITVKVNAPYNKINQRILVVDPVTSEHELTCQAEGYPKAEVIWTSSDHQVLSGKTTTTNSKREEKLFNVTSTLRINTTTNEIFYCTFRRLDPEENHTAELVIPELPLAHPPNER
Experimental: Identification of Antagonistic PDL1 Aptamers Using an ELISA-Based Competition Assay To investigate the efficacy of candidate PDL1 aptamers as antagonistic agents, ELISA-based competition assay was performed. Human PDL1 recombinant protein (2 µg/ml) was coated onto wells of 96-well ELISA plates and blocked by BSA (10 mg/ml). Human PD-1 protein (0.6 µg/ml) and aptamer (500 nmole/l) were added into wells simultaneously. After washing away unbound human PD-1 protein, PD-1 protein which remained in wells was detected by HRP-labeled anti-human IgG antibody. TMB was used as HRP substrate for color development and absorbance at 652 nm was detected by ELISA plate reader. Remained human PD-1 protein amount was quantified using standard curve which built by serial diluted human PD-1 protein. Wells without PDL1 coating were used as negative control.
To further investigate 50% effective dose of AP14 and AP32 as PDL1 blocking agents, serial diluted AP14 and AP32 ranged from 12.5 nmole/l to 500 nmole/l were used in previously mentioned ELISA-based competition assay.

PDL1 (CD274, B7-H1) [4] = biological target: T1, PDL1 (CD274, B7-H1); test: filter; passed cut-off of 5 for PDL1/BSA signal, qPCR
Experimental: Evaluation of the Relative Binding Ability of Candidate PDL1 Aptamers Using Nitrocellulose Filter Binding Assay The sequences of candidate PDL1 targeting aptamers were ranked by output reads from next-generation sequencing and sequences with output reads over 100 were analyzed. Among them, top 50 candidate aptamer sequences accounted for over 85% output reads. To evaluate their binding abilities toward PDL1, these top 50 candidate aptamers were synthesized and analyzed by nitrocellulose filter binding assay. The binding abilities toward BSA were used as negative control. In brief, candidate aptamer was incubated with PDL1 or BSA, respectively. Aptamer-protein complexes were collected by nitrocellulose filter and eluted by heating. The number of eluted aptamer was quantified by quantitative PCR and normalized by dividing the signal from PDL1 group to signal from BSA group. In order to find out the PDL1 aptamer with higher specificity, the cut-off value was set at 5.

[5] = Mfold-predicted long terminal stem and two short stem loops

Row | Binder | binding signal (PDL1 (CD274, B7-H1) [4]) [fold over BSA] | also measured
1 | ACGGGCCACATCAACTCATTGATAGACAATGCGTCCACTGCCCGT (ssDNA) [aptPDL1 fluorescently labeled] | – | Kd [1]: ~250 nM; Kd [2]: ~155 nM
2 | B1 | – | EC50 (PDL1 (CD274, B7-H1) [3]; [5]): 12 nM; binding signal (PDL1 (CD274, B7-H1) [4]; [5]): > 5 fold over BSA
3 | B2 | > 5 | EC50 (PDL1 (CD274, B7-H1) [3]): 41 nM
4 | B3 | > 5 | –
5 | B4 | > 5 | –
6 | B5 | > 5 | –
7 | B6 | > 5 | –
